Like-named read-outs stand apart in the source and are kept apart here. Numbered stars: 1 amine (or outer) side, 2 acyl side, 3 side chain; on linkers, the order of the positions; unused ones are H or OH. Square brackets hold non-standard residues; d marks the D form. Side chains are listed from the residue outwards. * marks the point of attachment. γGlu = O=C(O)[C@H](CCC(=O)[*:2])N[*:1]; Palmitoyl = CCCCCCCCCCCCCCCC(=O)*; Aib = CC(C)(N)C(=O)O
T1: endogenous GLP-1 receptor of a murine insulinoma cell line (murine, UniProt O35659 22-463)
T1 sequence (looked up): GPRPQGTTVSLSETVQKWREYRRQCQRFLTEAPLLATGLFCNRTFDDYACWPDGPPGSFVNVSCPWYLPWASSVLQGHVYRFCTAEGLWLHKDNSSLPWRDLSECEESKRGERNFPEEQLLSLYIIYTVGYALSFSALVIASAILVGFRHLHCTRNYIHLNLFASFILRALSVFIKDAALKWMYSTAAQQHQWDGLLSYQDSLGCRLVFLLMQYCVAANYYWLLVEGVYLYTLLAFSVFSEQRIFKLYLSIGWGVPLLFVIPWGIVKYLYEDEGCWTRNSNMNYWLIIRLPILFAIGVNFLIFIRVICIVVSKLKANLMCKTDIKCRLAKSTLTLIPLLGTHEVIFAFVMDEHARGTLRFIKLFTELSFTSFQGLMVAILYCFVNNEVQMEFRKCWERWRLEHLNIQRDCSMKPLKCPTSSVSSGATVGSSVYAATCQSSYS


How the values were obtained:
Assay in all cases: cell-based or functional assay
[1] = molecular target: T2, human glucagon-like peptide 1 receptor (GLP-1R) (human, UniProt P43220 24-463)
[2] = molecular target: T3, human glucagon receptor (Glucagon-R) (human, UniProt P47871 26-477)
[3] = molecular target: T1, endogenous GLP-1 receptor of a murine …
[4] = molecular target: endogenous glucagon receptor of primary rat hepatocytes (rat, UniProt P30082 27-485)
[5] = molecular target: T2, human glucagon-like peptide 1 receptor …; remark: listed apart in the source
[6] = molecular target: T3, human glucagon receptor (Glucagon-R); remark: listed apart in the source

T3 sequence (P47871 26-477): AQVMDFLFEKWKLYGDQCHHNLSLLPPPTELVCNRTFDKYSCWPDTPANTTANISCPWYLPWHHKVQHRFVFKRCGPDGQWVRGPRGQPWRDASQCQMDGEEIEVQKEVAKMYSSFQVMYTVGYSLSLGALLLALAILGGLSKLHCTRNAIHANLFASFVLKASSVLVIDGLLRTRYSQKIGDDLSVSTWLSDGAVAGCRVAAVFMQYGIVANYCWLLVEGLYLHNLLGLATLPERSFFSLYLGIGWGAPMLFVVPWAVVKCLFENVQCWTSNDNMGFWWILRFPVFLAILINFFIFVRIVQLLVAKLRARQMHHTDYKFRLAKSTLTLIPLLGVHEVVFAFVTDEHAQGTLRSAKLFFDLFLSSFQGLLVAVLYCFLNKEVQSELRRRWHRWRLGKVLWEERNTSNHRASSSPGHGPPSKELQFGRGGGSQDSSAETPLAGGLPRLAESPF
endogenous glucagon receptor of primary rat hepatocytes, sequence (P30082 27-485): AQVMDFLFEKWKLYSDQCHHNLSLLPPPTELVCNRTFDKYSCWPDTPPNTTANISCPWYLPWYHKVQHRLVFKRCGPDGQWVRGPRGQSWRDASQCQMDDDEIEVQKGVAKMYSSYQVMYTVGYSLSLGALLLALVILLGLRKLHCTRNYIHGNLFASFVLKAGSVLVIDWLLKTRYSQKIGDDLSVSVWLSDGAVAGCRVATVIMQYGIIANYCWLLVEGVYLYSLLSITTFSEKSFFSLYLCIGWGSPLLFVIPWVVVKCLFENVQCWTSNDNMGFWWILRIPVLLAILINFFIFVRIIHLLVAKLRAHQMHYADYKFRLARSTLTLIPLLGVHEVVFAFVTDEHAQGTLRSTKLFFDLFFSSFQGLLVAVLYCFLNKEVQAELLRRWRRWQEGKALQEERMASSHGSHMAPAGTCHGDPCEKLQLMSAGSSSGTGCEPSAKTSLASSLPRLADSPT

Binder | EC50 hGLP-1R CHO-K1 [nM] (cAMP) [1] | Ratio GLP-1/Glucagon (EC50 hGLP-1R / EC50 hGCGR) [1] [ratio] | EC50 hGCGR CHO-K1 [nM] (cAMP) [2] | EC50 GLP-1R (murine insulinoma cells) [nM] (cAMP) [3] | EC50 GLP-1R Rat hepat. [nM] (inhibition of glycogen synthesis) [4] | EC50 hGLP-1R CHO-K1 [nM] (cAMP) [5] | Ratio GLP-1/Glucagon (EC50 hGLP-1R / EC50 hGCGR) [5] [ratio] | EC50 hGCGR CHO-K1 [nM] (cAMP) [6]
H-HSHGTFTSDYSKYLEEK([γGlu-Palmitoyl])AAHEFIEWLESA-OH (SMILES CCCCCCCCCCCCCCCC(=O)N[C@@H](CCC(=O)NCCCC[C@H](NC(=O)[C@H](CCC(=O)O)NC(=O)[C@H](CCC(=O)O)NC(=O)[C@H](CC(C)C)NC(=O)[C@H](Cc1ccc(O)cc1)NC(=O)[C@H](CCCCN)NC(=O)[C@H](CO)NC(=O)[C@H](Cc1ccc(O)cc1)NC(=O)[C@H](CC(=O)O)NC(=O)[C@H](CO)NC(=O)[C@@H](NC(=O)[C@H](Cc1ccccc1)NC(=O)[C@@H](NC(=O)CNC(=O)[C@H](Cc1c[nH]cn1)NC(=O)[C@H](CO)NC(=O)[C@@H](N)Cc1c[nH]cn1)[C@@H](C)O)[C@@H](C)O)C(=O)N[C@@H](C)C(=O)N[C@@H](C)C(=O)N[C@@H](Cc1c[nH]cn1)C(=O)N[C@@H](CCC(=O)O)C(=O)N[C@@H](Cc1ccccc1)C(=O)N[C@H](C(=O)N[C@@H](CCC(=O)O)C(=O)N[C@@H](Cc1c[nH]c2ccccc12)C(=O)N[C@@H](CC(C)C)C(=O)N[C@@H](CCC(=O)O)C(=O)N[C@@H](CO)C(=O)N[C@@H](C)C(=O)O)[C@@H](C)CC)C(=O)O) [Compound 18] | 0.87 | 6.2 | 0.14 | 0.99 | 0.18 | – | – | –
H-H[Aib]HGTFTSDYSKYLESK([γGlu-Palmitoyl])AAEEFIEWLESA-OH (SMILES CCCCCCCCCCCCCCCC(=O)N[C@@H](CCC(=O)NCCCC[C@H](NC(=O)[C@H](CO)NC(=O)[C@H](CCC(=O)O)NC(=O)[C@H](CC(C)C)NC(=O)[C@H](Cc1ccc(O)cc1)NC(=O)[C@H](CCCCN)NC(=O)[C@H](CO)NC(=O)[C@H](Cc1ccc(O)cc1)NC(=O)[C@H](CC(=O)O)NC(=O)[C@H](CO)NC(=O)[C@@H](NC(=O)[C@H](Cc1ccccc1)NC(=O)[C@@H](NC(=O)CNC(=O)[C@H](Cc1c[nH]cn1)NC(=O)C(C)(C)NC(=O)[C@@H](N)Cc1c[nH]cn1)[C@@H](C)O)[C@@H](C)O)C(=O)N[C@@H](C)C(=O)N[C@@H](C)C(=O)N[C@@H](CCC(=O)O)C(=O)N[C@@H](CCC(=O)O)C(=O)N[C@@H](Cc1ccccc1)C(=O)N[C@H](C(=O)N[C@@H](CCC(=O)O)C(=O)N[C@@H](Cc1c[nH]c2ccccc12)C(=O)N[C@@H](CC(C)C)C(=O)N[C@@H](CCC(=O)O)C(=O)N[C@@H](CO)C(=O)N[C@@H](C)C(=O)O)[C@@H](C)CC)C(=O)O) [Compound 17] | 0.23 | 4.6 | 0.05 | 0.89 | 0.18 | – | – | –
H-H[Aib]QGTFTSDYSKYLDSK([γGlu-Palmitoyl])AAEDFVEWLESA-NH2 (SMILES CCCCCCCCCCCCCCCC(=O)N[C@@H](CCC(=O)NCCCC[C@H](NC(=O)[C@H](CO)NC(=O)[C@H](CC(=O)O)NC(=O)[C@H](CC(C)C)NC(=O)[C@H](Cc1ccc(O)cc1)NC(=O)[C@H](CCCCN)NC(=O)[C@H](CO)NC(=O)[C@H](Cc1ccc(O)cc1)NC(=O)[C@H](CC(=O)O)NC(=O)[C@H](CO)NC(=O)[C@@H](NC(=O)[C@H](Cc1ccccc1)NC(=O)[C@@H](NC(=O)CNC(=O)[C@H](CCC(N)=O)NC(=O)C(C)(C)NC(=O)[C@@H](N)Cc1c[nH]cn1)[C@@H](C)O)[C@@H](C)O)C(=O)N[C@@H](C)C(=O)N[C@@H](C)C(=O)N[C@@H](CCC(=O)O)C(=O)N[C@@H](CC(=O)O)C(=O)N[C@@H](Cc1ccccc1)C(=O)N[C@H](C(=O)N[C@@H](CCC(=O)O)C(=O)N[C@@H](Cc1c[nH]c2ccccc12)C(=O)N[C@@H](CC(C)C)C(=O)N[C@@H](CCC(=O)O)C(=O)N[C@@H](CO)C(=O)N[C@@H](C)C(N)=O)C(C)C)C(=O)O) [Compound 16] | – | – | – | 0.33 | 1.85 | 0.2 | 0.13 | 1.58
HXQGTFTSDYSKYLDEXAAKDFIEWLESA (Aib at position 2; Lys 17 K(Hexadecanoyl-isoGlu); C-terminal amide (-NH2)) [Compound 15] | – | – | – | 0.3 | 0.17 | 0.19 | 0.31 | 0.61
H-H[Aib]QGTFTSDYSKYLDEK([γGlu-Palmitoyl])RAKDFIEWLLSA-OH (SMILES CCCCCCCCCCCCCCCC(=O)N[C@@H](CCC(=O)NCCCC[C@H](NC(=O)[C@H](CCC(=O)O)NC(=O)[C@H](CC(=O)O)NC(=O)[C@H](CC(C)C)NC(=O)[C@H](Cc1ccc(O)cc1)NC(=O)[C@H](CCCCN)NC(=O)[C@H](CO)NC(=O)[C@H](Cc1ccc(O)cc1)NC(=O)[C@H](CC(=O)O)NC(=O)[C@H](CO)NC(=O)[C@@H](NC(=O)[C@H](Cc1ccccc1)NC(=O)[C@@H](NC(=O)CNC(=O)[C@H](CCC(N)=O)NC(=O)C(C)(C)NC(=O)[C@@H](N)Cc1c[nH]cn1)[C@@H](C)O)[C@@H](C)O)C(=O)N[C@@H](CCCNC(=N)N)C(=O)N[C@@H](C)C(=O)N[C@@H](CCCCN)C(=O)N[C@@H](CC(=O)O)C(=O)N[C@@H](Cc1ccccc1)C(=O)N[C@H](C(=O)N[C@@H](CCC(=O)O)C(=O)N[C@@H](Cc1c[nH]c2ccccc12)C(=O)N[C@@H](CC(C)C)C(=O)N[C@@H](CC(C)C)C(=O)N[C@@H](CO)C(=O)N[C@@H](C)C(=O)O)[C@@H](C)CC)C(=O)O) [Compound 14] | – | – | – | 0.72 | 0.1 | 0.53 | 0.98 | 0.54

More lines, now with the values ahead:

EC50 hGLP-1R CHO-K1 [nM] (cAMP) [1] | Ratio GLP-1/Glucagon (EC50 hGLP-1R / EC50 hGCGR) [1] [ratio] | EC50 hGCGR CHO-K1 [nM] (cAMP) [2] | EC50 GLP-1R (murine insulinoma cells) [nM] (cAMP) [3] | EC50 GLP-1R Rat hepat. [nM] (inhibition of glycogen synthesis) [4] | EC50 hGLP-1R CHO-K1 [nM] (cAMP) [5] | Ratio GLP-1/Glucagon (EC50 hGLP-1R / EC50 hGCGR) [5] [ratio] | EC50 hGCGR CHO-K1 [nM] (cAMP) [6] | Binder
0.12 | 0.09 | 1.32 | 0.3 | 3.4 | – | – | – | H-H[Aib]QGTFTSDYSKYLESK([γGlu-Palmitoyl])AAEDFIEWLESA-NH2 (SMILES CCCCCCCCCCCCCCCC(=O)N[C@@H](CCC(=O)NCCCC[C@H](NC(=O)[C@H](CO)NC(=O)[C@H](CCC(=O)O)NC(=O)[C@H](CC(C)C)NC(=O)[C@H](Cc1ccc(O)cc1)NC(=O)[C@H](CCCCN)NC(=O)[C@H](CO)NC(=O)[C@H](Cc1ccc(O)cc1)NC(=O)[C@H](CC(=O)O)NC(=O)[C@H](CO)NC(=O)[C@@H](NC(=O)[C@H](Cc1ccccc1)NC(=O)[C@@H](NC(=O)CNC(=O)[C@H](CCC(N)=O)NC(=O)C(C)(C)NC(=O)[C@@H](N)Cc1c[nH]cn1)[C@@H](C)O)[C@@H](C)O)C(=O)N[C@@H](C)C(=O)N[C@@H](C)C(=O)N[C@@H](CCC(=O)O)C(=O)N[C@@H](CC(=O)O)C(=O)N[C@@H](Cc1ccccc1)C(=O)N[C@H](C(=O)N[C@@H](CCC(=O)O)C(=O)N[C@@H](Cc1c[nH]c2ccccc12)C(=O)N[C@@H](CC(C)C)C(=O)N[C@@H](CCC(=O)O)C(=O)N[C@@H](CO)C(=O)N[C@@H](C)C(N)=O)[C@@H](C)CC)C(=O)O) [Compound 21]
0.31 | 1.94 | 0.16 | 0.41 | 0.15 | – | – | – | HXQGTFTSDYSKYLDEXAAKDFIEWLESA (D-Ser at position 2; Lys 17 K(Hexadecanoyl-isoGlu); C-terminal amide (-NH2)) [Compound 25]
0.23 | 0.34 | 0.68 | 0.27 | 0.39 | – | – | – | HXQGTFTSDYSKYLEEXAAKDFIEWLESA (Aib at position 2; Lys 17 K(Hexadecanoyl-isoGlu); C-terminal amide (-NH2)) [Compound 20]
0.27 | 3.38 | 0.08 | 0.33 | 0.06 | – | – | – | H-H[Aib]HGTFTSDYSKYLEEK([γGlu-Palmitoyl])AAHEFVEWLESA-NH2 (SMILES CCCCCCCCCCCCCCCC(=O)N[C@@H](CCC(=O)NCCCC[C@H](NC(=O)[C@H](CCC(=O)O)NC(=O)[C@H](CCC(=O)O)NC(=O)[C@H](CC(C)C)NC(=O)[C@H](Cc1ccc(O)cc1)NC(=O)[C@H](CCCCN)NC(=O)[C@H](CO)NC(=O)[C@H](Cc1ccc(O)cc1)NC(=O)[C@H](CC(=O)O)NC(=O)[C@H](CO)NC(=O)[C@@H](NC(=O)[C@H](Cc1ccccc1)NC(=O)[C@@H](NC(=O)CNC(=O)[C@H](Cc1c[nH]cn1)NC(=O)C(C)(C)NC(=O)[C@@H](N)Cc1c[nH]cn1)[C@@H](C)O)[C@@H](C)O)C(=O)N[C@@H](C)C(=O)N[C@@H](C)C(=O)N[C@@H](Cc1c[nH]cn1)C(=O)N[C@@H](CCC(=O)O)C(=O)N[C@@H](Cc1ccccc1)C(=O)N[C@H](C(=O)N[C@@H](CCC(=O)O)C(=O)N[C@@H](Cc1c[nH]c2ccccc12)C(=O)N[C@@H](CC(C)C)C(=O)N[C@@H](CCC(=O)O)C(=O)N[C@@H](CO)C(=O)N[C@@H](C)C(N)=O)C(C)C)C(=O)O) [Compound 19]
